Sequences and labels used below:
B1: TPR t1 (parent)
chain: GACCAAUCUGCCCUCAGAGCUCGAGAACAUCUUCGGAUGCAGAGGAGGCAGGCUUCGGUGGCGCGAUAGCGCCAACGUCCUCAACCUCCAAUGCAUCCCACCACAUGAUGAUGCCUGAAGAGCCUUGGUUUUUUG

This is an account of results in the RNAGym collection of RNA variant scans (doi:10.1073/pnas.2313332121).

In this series the parent is B1. Nature of the series: polymerase ribozyme fitness, log enrichment relative to wild type (log ratio); higher = more active; in vitro selection for triplet polymerase activity. Put shortly: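 Mutant libraries of both subunits of a heterodimeric triplet polymerase ribozyme were PCR-built, transcribed, and selected once in triplicate, with frozen incubation at −7 °C and capture of gel-excised extended constructs on streptavidin beads before RT-PCR. Illumina sequencing of input and output libraries was filtered to genotypes with ≥10 input reads and ≥1 read per output. Fitness is the logarithm of genotype enrichment over wild-type enrichment, using inverse-variance-weighted replicate averages. The logarithm is base 2.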
GACCAAUCUGCCCUCUGAGCUUGAGAACAUCUUCGGAUGCAGAGGAGGCAGGCUUCGGUGGUGCGAUAGCGCCAACGCCCUCAACCUCCAAGGCAUCCCACCACAUGAUGAUGCCUGAAAAGACUUGGUUUUUUG: the “polymerase ribozyme fitness (log ratio)” value was -6.53.
Take GACCAAUCUGCCCUCUGAGCGCGAGAACAUCUUCGGAUGCAGAGGAGGCAGGCUUCGGUGGCGCGAUAGCGCCAACGUCCUCAACCUCCAAUGCAUCCCACCACAUGAUGAUGUCUGAAGAGCCUUGGUUUUUUG: the “polymerase ribozyme fitness (log ratio)” value is -4.99.
In the case of GACCAAUCUGCCCUCUGAGCUCGAGAACAUCUUCGGAUGCAGAGGAGGCAGGCUUCGGUGGUGCGAUAGCGCCAACGUCCUCAACCUCCAAUGCAUCCCACCACAUGAUGAUGCCUGAAGAGCCUUGGUUUUUUG, the “polymerase ribozyme fitness (log ratio)” value was -1.92.
Regarding GACCAAUCUGCCCUCUGAGCUCGAGAACAUCUUCGGAUGCAGAGAAGGCAGGCUUCGGUGUCGCGAUAGCGCCAACGUCCUGAACCUCCAAUGCAUCCCACCACAUGAUGAUGCCUGAAGAGCCUUGGUUUUUUG, the “polymerase ribozyme fitness (log ratio)” value was -1.81.
Consider GACCAAUCUGCCCUCUGAGCUCGAGAACAUCUUCGGAUGCAGAGGAGCCAGGCUUCGGCGGCGCGAUAGCGCCAACGUCCUCAACCUCCAAUGCAUCCCACCACAUGAUGAUGCCUGAAGAGCCUCGGUUUUUUG, for which the “polymerase ribozyme fitness (log ratio)” value is -2.91.
With GACCAAUCUGCCCUCUGAGCUCGAGAACAUCUUCGGAUGCAGAGGAGGCAGGCUUCGGUGGCGCGAUAGCGCCAACGUCCUCAACCUCCAAUGCAUCCCACCACAUGAUGAUGCCUGAAGAGCCUUGGUUUUUUU the figure was -1.8.
GACCAAUCUGCCCUCUGAGCUCGAGAACAUCUUCGGAUGCAGAGGAGGAAUGCUGCGGUGGCGCGAUAGCGCCAACGUCCUCAACCUCCAAUGCAUCCCACCACAUGAUGAUGCCUGAAGAGCCUGGUUUUUUUG: the “polymerase ribozyme fitness (log ratio)” value was -5.16.
For the variant GACCAAUCUGCCCUCUGAGCUCGAGAACAUCUUCGGAUGCAGAGGAGGCAGGCUUCGGUUGCGCGAUAGCGCCAACGUCCUCAACCGCCAAUGCAUCCCACCACAUGAUGAUGCCUGAAGAACCUCGGUUUUUUG, the “polymerase ribozyme fitness (log ratio)” value is -3.42.
Take GACCAAUCUGCCCUCAACGCUCGAGAACAUCUUCGGAUGCAGAGGAGGCAGGCUUCGGUGGGGCGAUAGCGCCAACGUCCUCAACCUCCAAUGCAUCCCACCACAUGAUGAUGCCUGAACAGCCUUGGUUUUUUG: the “polymerase ribozyme fitness (log ratio)” value is -4.41.
As for GACCAAUCUGCCCUCUGAGCUCGAGAACAUCUUCGGAUGCAGAGGAGGAAGGCUUCGGUGGCGCGAUAGCGACAACGUCCUCAACCUCCAAUGCAUCCCACCACAUGAUGAUGCCUGAAGAGCCUUGGUUUUUUG, the “polymerase ribozyme fitness (log ratio)” value was -1.6.
Under GACCAAUCUGCCCUCUGAGCUCGAGAACAUCUUCGGAUGCAGAGGAGGCAGGCUUCGGUGGCGCGAUAGCGCCAACGUUCUCAACCUCCAGUGCAUCCCACCACAUGAUGAUGCCUGAAGAGGCUUGGUUGUUUG stands -1.49; under GACCAAUCUGCCCUCUGAGCUCGAGAACAUCUUCGGAUGCAGAGGAGGCAGGCUUCGGUGGCGCGAUAGUGCCAACGUCCUCAACCUCCAAUGCAUCCCACCACAUGAUGAUGCCUUAAGAGACUUGGUUUUUUG, -4.02.
As for GACCAAUCUGCCCUCUGAGCUCGAGAACAUCUUCGGAUGCAGAGGAGGCAGGCUUCGGUGGCGCGAUAGCGCCAACGUCCUCAACCUCCAAUGCAUCCCACCACAUUAUGAUGCCUGAAGAGCGUUGGUUUUUUG, the “polymerase ribozyme fitness (log ratio)” value is -4.06.
As for GACCAAUCUGCCCUCUGAGCUCGAGAACAUCUUCGGAUGCAGAGGAGGCAGGCUUCGGUAGUGCGAUAGCGCCAACGUCCUCAACCUCCAAUGCAUCCCACCACAUGAUGACGCCUGAAGAGCCUUGGUUUUUUG, the “polymerase ribozyme fitness (log ratio)” value is -0.401.
Turning to GACCAAUCUGCCCUCUGAGCUCGAGAACAUCUUCGGAUGCAGAGGAGGCAGGCUUCGUUGGCGCGAUAGCGCCAACGUCCUCAACCUCCAAUGCAUCCCACCACAUGAUGAUGCCUGAAGAGACUUGGUUUUUUG, the “polymerase ribozyme fitness (log ratio)” value is -2.18.
With GACCAAUCUGCCCUCUGAGCUCGAGAACAUCUUCGGAUGCAGAGGAGGCAGGCUUCGGUGUCGCGAUAGCGCCAACGUCCUCAACCUCCAAUGCAUCCCACCACAUGAUGAUGCCUGAAGAGCCUUGGUUUUUUG the figure was -1.11; with GACCAAUCUGCCCUCUGAGCUCGAGAACAUCUUCGGAUGCAGAGGAGGCAGGCUUCGGUGCCGCGAUAGCGCCAACGUCCUCAACCUCCAAUGCAUCCCACCACAUGAUGAUGCCUGAAGAGCCUUGGUUUUUUG, -2.41.
For GACCAAUCUGCCCUCUGAGCUCGAGAACAUCUUCGGAUGCAGAGGAGGCAGGCUUAGGUGGCGCGAUAGCGCCAACGUCCUCAACCUCCAAUGCAUCCCACCACAUGAUGAUGCCUUAAGAGCCUUGGUUUUUUG, the “polymerase ribozyme fitness (log ratio)” value was -3.11.
As to GACCAAUCUGCCCUCUGAGCUCGAGAACAUCUUCGGAUGCCGAGGAGGCAGGCUUCAGUGGCGCGAUAGCGCCAACGUCCUCAUCCUCCAAUGCAUCCCACCACAUGAUGAUGCCUGAAGAGCCUUGGUUUUUUG, the “polymerase ribozyme fitness (log ratio)” value is -3.81.
Regarding GACCAAUCUGCCCUCUCAGCUCGAGAACAUCUUCGGAUGCAGAGGAGGCAGGCUUCGGUGGCGCGAUAGCGCCAACGUCCUCAACCUCCAAUGCAUCCCACCACAUGAUGAUGUCUGAAGAGCCUUGGUUUUUUG, the “polymerase ribozyme fitness (log ratio)” value was -1.76.
With GACCAAUCUGCCCUCUGAGCUCGAGAACAUCUUCGGAUGCAGAGGAGGCAGGCUUCGGUGGCGCGAUAGCGCCAACGUCCUCAACCUCCAAUGCAUCCCACCACAUGAUGAUGCCUUAAGAGCCUUGGUUUUUUG, the “polymerase ribozyme fitness (log ratio)” value is -2.04.
Under GACCAAUCUGCCCUCUGAGCUCGAGAACAUCUUCGGAUGCAGAGGAGGCAGGCUUCGGUGGCGCGAUAGCGCCAACGUCCUCAACCUCCAAUGCAUCCCACCACAUGAUGAUGCCUAAAGAGCCUUGGUUUUUUG stands -2.22; under GACCAAUCUGCCCUCUGAGCUCGAGAACAUCUUCGGAUGCAGAGGAGGCAGGCUUCGGUGGCGCGAUAGCGCCAACGUCCUCAACCUCCAAUGCAUCCCACCACAUGAUGAUGUCUGAAGAGCCUUGGUUUUUUG, -4.86; under GACCAAUCUGCCCUCUGAGCUCGAGAACAUCUUCGGAUGCAGAGGAGGCAGGCUUCGGUGGCGCGAUAGCGCCAACGUCCUCAACCUCCAAUGCAUCCCACCACAUGAUGAUGCCUGAAGAGCUUUGGUUUUUUG, 0.484.
Take GACCAAUCUGCCCUCUGAGCUCGAGAACAUCUUCGGAUGCAGAGGAGGCAGGCUUCGGUGGCGCGAUAGAGCCAACGUCCUCAACCUCCAAUGCAUCCCACCACAUGAUGAUGCCUGAAGAGCCUUGGUUUUUUG: the “polymerase ribozyme fitness (log ratio)” value is -3.19.
On to GACCAAUCUGCCCUCUAAGAUCGAGAACAUCUUCGGAUGCAGAGGAGGAAGGCUUCGGUGGCGCGAUAGCGCUAACGUCCUCAACCUCCAAUGCAUCCCACCACAUGAUGAUGCCUGAAGAGCCUUGGUUUUUUG, for which the “polymerase ribozyme fitness (log ratio)” value was -4.77.
For the variant GACCAAUCUGCCCUCUGAGCUCGAGAACAUCUUCGGAUGCAGAGGAGGCAGGCUUCGGUGGCGCGAUAGCGCCAACGACCUCAACCUCCAAAGCAUCCCACCACAUGAUGAUGCCUGAAGAGCCUUGGUUUUUUG, the “polymerase ribozyme fitness (log ratio)” value was -4.78.
Turning to GACCAAUCUGCCCUCUGAGCUCGAGAACAUCUUCGGAUGCAGAGCAGGCAGGCUUGGGUGGCGUGAUAGCGCCAACGUCCUCCACCUCCAAUGCAUCCCACCACAUGAUGAUGCCUGAAGAGCCUUGGUUUUUUG, the “polymerase ribozyme fitness (log ratio)” value is -4.1.
With GACCAAUCUGCCCUCUGAGCUCGAGAACAUCUUCGGAUGCAGAGGAGGCGGGCUUCGAUAGCGUGAUAGCGCCAACGUCCUCAACCUCCAAUGCAUCCCACCACAUGAUGAUGCCUGAAGAGCCUUGGUUUUUUG, the “polymerase ribozyme fitness (log ratio)” value is -3.73.
Consider GACCAAUCUGCCCUCUGAGCUCGAGAACAUCUUCGGAUGCAGAGGAGGCAGGGUUCGGUGGCGCGAUAGCGCCAACGUCCUCAACCUCCAAUGCAGCCCACCACAUGAUGAAGCCUGAAGAGCCUUGCUUUUUUG, for which the “polymerase ribozyme fitness (log ratio)” value was -3.45.
With GACCAAUCUGCCCUCUGAGCUCGAGAACAUCUUCGAAUGCUGAGGAGGCAGGCUUCGGUGGCGCGAUAGCGCAAACGUCCUCAACCUCCAAUGCAUCCCACCACAUGAUGAUGCCUGAAGAGCCUUGGUUUUUUG, the “polymerase ribozyme fitness (log ratio)” value is -4.17.
Consider GACCAAUCUGCCCUCUGAGCUCGAGAACAUCUUCGGAUGCAGAGGAGGCAGGCUUCGGUGGCGCGAUAGCGCCAACGUCCUCAACCUCCAAUGCAUCCCACUACAUGAUGAUGCCUGAAGAGCCUUGGUUUUUUG, for which the “polymerase ribozyme fitness (log ratio)” value was -3.23.
As to GACCAAUCUGCCCUCUGAGCUCGAGAACAUCUUCGGAUGCAGAGGAGGCAGGCUUCGGUGGCGCGAUAGCGCCAACGUCCUCAACCUCCAAUGCAUCCCACCACAUGAUGAUUCCUGAAGAGCCUUGGUUUUUUG, the “polymerase ribozyme fitness (log ratio)” value was -4.23.
With GACCAAUCUGCCCUCUGAGCUCGAGAACAUCUUCGGAUGCAGAGGAGGCAGGCUUCGGUGGCGCGAUAGCUCCAACGUCCUCAACCUCCAAUGCAUCCCACCACAUGAUGAUGCCUGAAGAGCCUUGGUUUUUUG, the “polymerase ribozyme fitness (log ratio)” value was -0.858.
Consider GACCAAUCUGCCCUCUGAGCUCGAGAACAUCUUCGGAUGCAUAGGAGGCAGGCUUCGGUGGCGCGAUAGCGCCAACGUCCUCAACCUCCAAUGCAUCCCACCACAUGAUGAUGCCUGAAGAGCCUUGGUUUUUUG, for which the “polymerase ribozyme fitness (log ratio)” value was -2.52.
Turning to GACCAAUCUGCCCUCUGAGCUCGAGAACAUCUUCGGAUGCAGAGGAGGCAGGCUUCGGUGGCGCGAUAGCGCCAACGUCCUCAACCUCCAAUGCAUCCCACCACAUGAUGAUGCCUGAAGAGCUUUGGGUUUUUG, the “polymerase ribozyme fitness (log ratio)” value is 0.0068.
As for GACCAAUCUGCCCUCUGAGCUCGAGAACAUCUUCGGGUGCAGAGGAGGCAGGCUUCGGUGGCGCGAUAGCGCCAACGUCCUCAACCUCCAAUGCAUCCCACCACAUGAUGAUACCUGAAGAGCCUUGGUUUUUUG, the “polymerase ribozyme fitness (log ratio)” value is -4.83.
Consider GACCAAUCUGCCCUCUGAGCUCGAGAACAUCUUCGGAUGCAGAGGAGGCAGGCUUCUGUGGCGCGAUAGCGCCAACGUCCUCAACCUCCAAUGCAUCCCACCACAUGAUGAUGCCUGAAGAGCCUUGGUUUUUUG, for which the “polymerase ribozyme fitness (log ratio)” value was -1.91.
GACCAAUCUGCCCUCUGAGCUCGAGAACAUCUUCGGAUGCAGAGGAGCCAGGCUUCGGUGGCGCGAUAGCGCCAACGUCCUCAACCUCCAAUGCAUCCCACCACAUGAUGAUGCCUGAAAAGCCUUGGUUUUUUG: the “polymerase ribozyme fitness (log ratio)” value is -1.64.
For GACCAAUCUGCCCUCUGAGCUCGAGAACAUCUUCGGAUGCAGAGGAGGCAGGCUUCGGUGGCGCGAUAGCGCCAACGUGCUCAACCUCCAAUGCAUCCCACCACAUGAUGAUGCCUGAAGAGCCUUGGUUUUUUG, the “polymerase ribozyme fitness (log ratio)” value was -2.59.
Take GACCAAUCUGCCCUCUGAGCUCGAGAACAUCUUCGGAUGCAGAGGAGGCCGGCUUCGGUGGCGCGAUAGCGCCAACGUCCUCAACCUCCAAUGCAUCCCACCACAUGAUGAUGCCUGAAGAGCCUUGGUUUUUUG: the “polymerase ribozyme fitness (log ratio)” value is -2.04.
For the variant GACCAAUCUGCCCUCUGAGCUCGAGAACAUCUUCGGAUGAAGAGGAGGCAAGCUUCGGUGGCGCGAUAGCGCCAACGUCCUCAACCUCCAACGCAUCCCACCACAUGAUGAUCCCCCAAGAGCCUUGGUUUUUUG, the “polymerase ribozyme fitness (log ratio)” value is -6.65.
